Laboratory results as given in patent US20260055187A1 (SANTA ANA BIO, published 2026).

B1: PD-1 antibody 20B3.1 (antibody, V domains shown)
VH: EVKLVESGGGLVKPGGSLKLSCAASGFTFSSFGMSWVRQTPEKRLEWVATISGGGSNTYYPDSVKGRFTISRDNAKNNLYLQMTSLTSEDTALYYCTRIYDVAWFAYWGQGTLVTVS
VL: not shown
notes: detection used an anti-human IgG secondary antibody; also called Murine 20B3.1
B2: PD-1 antibody 1B8 (antibody, V domains shown)
VH: EVQLVLSGGGFVQPGGSLKLSCAASGFTFSSYAMSWVRQNPERRLVWVATITGGGRNTYYPDSVKGRFTISRDNAKNTLYLQMSSLRSEDTAMYYCTRQGYDGYTWFAYWGQGTLVTVS
VL: not shown
notes: detection used an anti-human IgG secondary antibody; also called Murine 1B8
B3: PD-1 antibody 1-28 (antibody, V domains shown)
VH: EVQLVQSGAEVKKPGASVKVSCKASGYRFTSYGISWVRQAPGQGLEWMGWISAYNGNTNYAQKLQGRVTMTTDTSTNTAYMELRSLRSDDTAVYYCARDADYSSGSGYWGQGTLVTVSS
VL: SYELTQPPSVSVSPGQTARITCSGDALPKQYAYWYQQKPGQAPVMVIYKDTERPSGIPERFSGSSSGTKVTLTISGVQAEDEADYYCQSADNSITYRVFGGGTKVTVL
notes: detection used an anti-human IgG secondary antibody
B4: PD-1 antibody 1-33 (antibody, V domains shown)
VH: QVQLVQSGAEVKKPGASVRVSCKASGYTLTSYYIHWVRQAPGQGLEWMGIINPRGATISYAQKFQGRVTMTRDTSTSTVYMELRNLKSEDTALYYCATAGIYGFDFDYWGRGTLVTVSS
VL: QSALTQPASVSGSPGQSITISCTGTSNDVGGYNYVSWYQHHPGKAPKLIIYDVTNRPSGVSDRFSGSKSGNTASLTISGLLAEDEGDYYCSSYTIVTNFEVLFGGGTKLTV
notes: as for B3
B5: PD-1 antibody 1-35 (antibody, V domains shown)
VH: QVQLQESGPGLVKPSQTLSLTCTVSGGSISSGAYYWSWIRQHPGKGLEWIGYIYYNGNTYYNPSLRSLVTISVDASKNQFSLKLSSVTAADTAVYYCARASDYVWGGYRYMDAFDIWGRGTLITVSS
VL: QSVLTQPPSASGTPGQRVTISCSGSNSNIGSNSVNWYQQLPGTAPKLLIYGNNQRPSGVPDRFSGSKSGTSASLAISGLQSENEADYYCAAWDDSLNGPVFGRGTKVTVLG
notes: as for B3
B6: PD-1 antibody 3H4 (antibody, V domains shown)
VH: QIQLQQSGPELVKPGASVKISCKASGYTFTDYYINWVKQKPGQGLEWIGWIYPGSVNTKYNEKFRGKATLTVDTSSSTAYIQLSGLTSEDTAVYFCARYSNWFFDVWGAGTAVTVS
VL: DIVMTQSPSSLSASLGERVSLTCRASQEISGYLSWLQQKPDGTIKRLIYAASTLDSGVPKRFSGSRSGSDYSLSISSLESEDFADYYCLQYASYPYTFGGGTKLEIKR
notes: detection used an anti-human IgG secondary antibody; also called Murine 3H4
B7: PD-1 antibody 1-17 (antibody, V domains shown)
VH: QVQLQESGPGVVKPSGTLSLTCAISGGSIGSGGSIRSTRWWSWVRQSPGKGLEWIGEIYHSGSTNYNPSLKSRVTISLDKSRNHFSLRLNSVTAADTAVYYCARQDYGDSGDWYFDLWGKGTMVTVSS
VL: NFMLTQPHSVSESPGKTVTISCTRSSGSIASNSVQWYQQRPGSSPTTVIYEDNQRPSGVPDRFSGSIDSSSNSASLTVSGLKTEDEADYYCQSSDSSAVVFGSGTKLTVL
notes: as for B3
B8: PD-1 antibody 2.3A9 (antibody, V domains shown)
VH: QVQLQQSDAELVKPGTSVKISCKASGYTFTDHAIHWLKQEPDQGLEWIGYISPGYGDIEYNEKFKGKATLTADKSSSTAYMQLSSLTSEDSAVYFCKVTTGYWGQGTTLTVS
VL: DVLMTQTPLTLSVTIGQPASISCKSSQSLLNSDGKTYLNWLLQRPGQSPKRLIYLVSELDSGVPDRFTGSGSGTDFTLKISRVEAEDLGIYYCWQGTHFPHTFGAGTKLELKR
notes: detection used an anti-human IgG secondary antibody; also called Murine 2.3A9

Key:
PD-1 biotin = molecular target: T1, PD-1 biotin (UniProt Q15116 25-167, limits assumed, biotin (site not stated)); assay: PD-1/PD-L1 blocking ELISA, interpolated on a standard curve of a PD-1 neutralizing antibody
T1 construct: also called biotinylated PD-1
T1 sequence (Q15116 25-167 limits assumed): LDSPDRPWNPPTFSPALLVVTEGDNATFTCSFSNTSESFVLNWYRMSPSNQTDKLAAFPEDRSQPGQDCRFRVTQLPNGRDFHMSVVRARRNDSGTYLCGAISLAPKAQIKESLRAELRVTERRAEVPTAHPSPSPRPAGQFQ
Description: The ability of disclosed PD-1 antibodies to block the PD-1/PD-L1 interaction was assessed using an ELISA based assay.
Briefly, human PD-L1 was immobilized on 96 well ELISA plates. Plates were washed and blocked for 1.5 hours at 37° C. with block buffer. Plates were washed and test PD-1 antibodies, isotype controls, or a standard curve of PD-1 neutralizing antibody were added to the coated plate and incubated for 1 hour at 37° C. […] Following washing, streptavidin-HRP was added to the plate and the plate was incubated at 37° C. for 1 hour. After a final wash, antibody binding was detected colorimetrically by adding a subrate solution and incubating for 20 minutes protected from light before adding stop solution. Absorbance at 450 nm was measured on a plate reader (PerkinElmer). Data was analyzed using GraphPad Prism.
Percent blocking of tested PD-1 antibodies was determined by interpolating values obtained from each sample against the standard control curve (see FIG. 1) and summarized in Table 4.

[1] = molecular target: T2, CD28 extracellular domain (PD-1 family member) (UniProt P10747 19-152, limits assumed); assay: ELISA, His-tagged extracellular domain on plate
T2 construct: extracellular domain; not shown: His tag
T2 sequence (P10747 19-152 limits assumed): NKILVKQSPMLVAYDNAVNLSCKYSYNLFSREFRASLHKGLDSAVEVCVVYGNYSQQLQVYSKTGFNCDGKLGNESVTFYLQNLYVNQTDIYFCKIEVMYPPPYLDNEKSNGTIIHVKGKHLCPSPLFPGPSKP
Description: (§1) His-tagged extracellular domains of human PD-1, cynomolgus PD-1, and PD-1 family members ICOS, CD28, and CTLA-4 extracellular domains were immobilized on 96 well ELISA plates. Plates were washed with PBST (phosphate buffered saline+0.05% Tween 20) and blocked for 1 hour with 1% BSA in PBS. Following washing with PBST, test PD-1 antibodies were added to the coated plate and incubated for 2 hours at room temperature. Plates were washed and incubated with HRP-conjugated goat anti-human IgG secondary antibody for 1 hour at room temperature. Following washing, antibody binding was detected colorimetrically by adding 3,3′,5,5′-tetramethylbenzidine (TMB) and incubated at room temperature for 10-20 minutes before adding 2.5N sulfuric acid stopping solution. Absorbance at 450 nm was measured on a plate reader (PerkinElmer). Data was analyzed using Graph-Pad Prism.

[2] = molecular target: T3, ICOS extracellular domain (PD-1 family member) (UniProt Q9Y6W8 21-140, limits assumed); assay: ELISA, His-tagged extracellular domain on plate
T3 construct: extracellular domain; not shown: His tag
T3 sequence (looked up): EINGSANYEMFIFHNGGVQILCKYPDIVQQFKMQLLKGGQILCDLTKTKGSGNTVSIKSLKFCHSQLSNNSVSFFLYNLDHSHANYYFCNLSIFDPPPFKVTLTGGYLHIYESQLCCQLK
Description: as §1

[3] = molecular target: T4, CTLA-4 extracellular domain (PD-1 family member) (UniProt P16410 36-161, limits assumed); assay: ELISA, His-tagged extracellular domain on plate
T4 construct: extracellular domain; not shown: His tag
T4 sequence (looked up): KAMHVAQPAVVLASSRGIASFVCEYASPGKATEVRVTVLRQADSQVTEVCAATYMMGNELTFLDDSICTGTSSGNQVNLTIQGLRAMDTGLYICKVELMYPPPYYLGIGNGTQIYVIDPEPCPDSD
Description: as §1

Row | Binder | Percent Blocking (PD-1 biotin) [percent] | binding result [1] | binding result [2] | binding result [3]
1 | B1 | 94 | no binding | no binding | no binding
2 | B2 | 90 | no binding | no binding | no binding
3 | B3 | 87 | no binding | no binding | no binding
4 | B4 | 68 | no binding | no binding | no binding
5 | B5 | 58 | no binding | no binding | no binding
6 | B6 | 46 | no binding | no binding | no binding
7 | B7 | 7 | no binding | no binding | no binding
8 | B8 | 0 | no binding | no binding | no binding
